Results published in PMC2673096.

Molecular target: FLAG-HA-HA (F2H)-tagged tbRAP1 at its endogenous locus (Trypanosoma brucei (endogenous locus in T. brucei cells))
Assay: co-IP

Substance: endogenous tbTRF (natural protein)
- percent co-immunoprecipitated: 10%
